Values belong to the binder of their own block, whether it stands above or below them.
Tests used:
[1] = target: T1, rHuman P-Cadherin/Fc Chimera, CF (R&D Systems Cat#861-PC) (human, UniProt P22223 108-654); assay: MSD ECL multi-spot plate, antigen immobilized; Fab 1000 nM; blank spot 630
T1 construct: Purchased Fc chimera; not shown: Fc portion of the purchased chimera

[2] = target: T2, rHuman CD44/Fc Chimera, CF (R&D Systems Cat#3660-CD) (human, UniProt P16070 21-220); assay: as above
T2 construct: Purchased Fc chimera; not shown: Fc portion of the purchased chimera

[3] = target: T3, rHuman IGF-1 sR (IGF-1 sR), CF (R&D Systems Cat#391-GR) (human, UniProt P08069 31-932); assay: as above
T3 construct: Purchased soluble receptor; also called insulin-like growth factor-1 soluble receptor; IGF-R1

[4] = target: T4, rHuman ErbB2/Fc Chimera, CF (R&D Systems Cat#1129-ER) (human, UniProt P04626 23-652); assay: ECL (MSD multi-spot), antigen on plate, Fab 2 nM
T4 construct: Bought Fc chimera; also called HER2/neu; not shown: Fc of the bought chimera

[5] = target: T5, Recombinant Human DLL4 (R&D Systems Cat#1506-D4/CF) (human, UniProt Q9NR61 27-524); assay: ECL (MSD multi-spot), antigen on plate, Fab 2 nM
T5 construct: Bought recombinant protein; also called delta-like protein 4

[6] = target: T6, rHuman HGF R/c-MET/Fc Chimera, CF (R&D Systems Cat#358-MT/CF) (human, UniProt P08581 25-932); assay: ECL (MSD multi-spot), antigen on plate, Fab 2 nM
T6 construct: Bought Fc chimera; also called HGF R/Fc; not shown: Fc of the bought chimera

[7] = target: T7, rHuman CD44/Fc Chimera, CF (R&D Systems Cat#3660-CD) (human, UniProt P16070 21-220); assay: ECL (MSD multi-spot), antigen on plate, Fab 2 nM
T7 construct: Bought Fc chimera; not shown: Fc of the bought chimera

[8] = target: T8, rHuman EGF R/Fc Chimera, CF (R&D Systems Cat#344-ER) (human, UniProt P00533 25-645); assay: ECL (MSD multi-spot), antigen on plate, Fab 2 nM
T8 construct: Bought Fc chimera; also called ErbB-1; not shown: Fc of the bought chimera

[9] = target: T9, rHuman Notch-1/Fc Chimera, CF (R&D Systems Cat#3647-TK) (human, UniProt P46531 19-526); assay: ECL (MSD multi-spot), antigen on plate, Fab 2 nM
T9 construct: Bought Fc chimera; not shown: Fc of the bought chimera

[10] = target: T10, rHuman P-Cadherin/Fc Chimera, CF (R&D Systems Cat#861-PC) (human, UniProt P22223 108-654); assay: ECL (MSD multi-spot), antigen on plate, Fab 2 nM
T10 construct: Bought Fc chimera; also called CDH3; not shown: Fc of the bought chimera

[11] = target: T11, rHuman Erythropoietin R/Fc Chimera, CF (R&D Systems Cat#963-ER) (human, UniProt P19235 25-250); assay: ECL (MSD multi-spot), antigen on plate, Fab 2 nM
T11 construct: Bought Fc chimera; also called EPO R/Fc; Epo R; not shown: Fc of the bought chimera
T11 sequence: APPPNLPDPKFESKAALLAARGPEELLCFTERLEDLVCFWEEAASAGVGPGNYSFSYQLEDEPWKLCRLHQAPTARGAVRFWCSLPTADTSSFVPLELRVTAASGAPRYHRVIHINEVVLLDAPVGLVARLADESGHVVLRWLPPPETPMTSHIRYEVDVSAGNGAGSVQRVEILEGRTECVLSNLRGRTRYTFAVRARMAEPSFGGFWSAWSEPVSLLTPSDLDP

[12] = target: T12, rHuman IGF-1 sR (insulin-like growth factor-1 soluble receptor), CF (R&D Systems Cat#391-GR) (human, UniProt P08069 31-932); assay: ECL (MSD multi-spot), antigen on plate, Fab 2 nM
T12 construct: Bought soluble receptor; also called IGF-R1
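Note: blank spot per well as comparator with Hit at signal to blank ratio of 4 or more.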

ECL signal [1]: 1040 ECL signal | ECL signal [2]: 1020 ECL signal | ECL signal [3]: 1130 ECL signal
B1: Fab VH5-51_IGHD5-18*01>3_IGHJ4*01_G100K & V3-4_IGLJ1*01 (Fab, V domains shown)
VH: EVQLVQSGAEVKKPGESLKISCKGSGYSFTSYWIGWVRQMPGKGLEWMGIIYPGDSDTRYSPSFQGQVTISADKSISTAYLQWSSLKASDTAMYYCARRKYSYGYDYFDYWGQGTLVTVSS
VL: QTVVTQEPSFSVSPGGTVTLTCGLSSGSVSTSYYPSWYQQTPGQAPRTLIYSTNTRSSGVPDRFSGSILGNKAALTITGAQADDESDYYCVLYMGSGISYVFGTGTKVTVL
notes: It was expressed as a Fab: CH1 with tags from Plasmid A and lambda CL from Plasmid E; also called Fab No. 22

ECL signal [4]: 176 ECL signal | ECL signal [5]: 6100 ECL signal | ECL signal [6]: 255 ECL signal | ECL signal [7]: 266 ECL signal | ECL signal [8]: 352 ECL signal | ECL signal [9]: 307 ECL signal | ECL signal [10]: 223 ECL signal | ECL signal [11]: 251 ECL signal | ECL signal [12]: 205 ECL signal
B2: Fab VH1-46_IGHD6-6*01_IGHJ1*01_S102A_S103P_S104F & L6_IGKJ1*01_S28P (Fab, V domains shown)
VH: QVQLVQSGAEVKKPGASVKVSCKASGYTFTSYYMHWVRQAPGQGLEWMGIINPSGGSTSYAQKFQGRVTMTRDTSTSTVYMELSSLRSEDTAVYYCAREEYAPFSAEYFQHWGQGTLVTVSS
VL: EIVLTQSPATLSLSPGERATLSCRASQPVSSYLAWYQQKPGQAPRLLIYDASNRATGIPARFSGSGSGTDFTLTISSLEPEDFAVYYCQQRSNWPPWTFGQGTKVEIKR
notes: Fab

— patent publication US20120058906A1 (published 2012)
